Results taken from patent US20240277831A1.

Assays:
[1] = target: Monomeric SARS-CoV-2 RBD (SARS-CoV-2) (UniProt P0DTC2)
[2] = target: RBD-12GS-I53-50A trimeric component (SARS-CoV-2)
[3] = target: RBD-16GS-I53-50A trimeric component (SARS-CoV-2)
[4] = target: RBD-8GS-I53-50A trimeric component (SARS-CoV-2)

Substance: CR3022 Fab
- Kd [1]: 45 nM
- koff [1]: 0.009 s⁻¹
- kon [1]: 200000 M⁻¹ s⁻¹
- Kd [2]: 42 nM
- koff [2]: 0.009 s⁻¹
- kon [2]: 200000 M⁻¹ s⁻¹
- Kd [3]: 56 nM
- koff [3]: 0.01 s⁻¹
- kon [3]: 200000 M⁻¹ s⁻¹
- Kd [4]: 57 nM
- koff [4]: 0.01 s⁻¹
- kon [4]: 200000 M⁻¹ s⁻¹
